The supplement of paper PMC9112550, “Optimization of the antimicrobial peptide Bac7 by deep mutational scanning” (BMC Biology, 2022)

Tested on: Escherichia coli TOP10
Assay: shrunken log2 fold change of peptide-encoding DNA abundance (4.5 h post-induction vs induction); higher = less antimicrobial activity (less host growth inhibition)
Conditions: time post-induction: 4.5 h; library: site-saturation at positions 5, 18, 19, 20
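Further: peptides expressed intracellularly from a pBAD plasmid library in pooled LB shake-flask culture, induced with 0.3% L-arabinose, DNA abundance read by NGS, three biological replicates, DESeq2 with apeglm shrinkage.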

| Sequence | shrunken log2 fold change |
| --- | --- |
| RRIRPRPPRLPRPRPRPCPRPRP | 0.0438 |
| RRIRPRPPRLPRPRPRPVQEPRP | -0.0759 |
| RRIRERPPRLPRPRPRPIEPPRP | -0.26 |
| RRIRPRPPRLPRPRPRPTHWPRP | 0.484 |
| RRIRGRPPRLPRPRPRPYPRPRP | 0.162 |
| RRIRNRPPRLPRPRPRPSDYPRP | 0.075 |
| RRIRGRPPRLPRPRPRPMIHPRP | -0.0642 |
| RRIRQRPPRLPRPRPRPMTKPRP | -0.0865 |
| RRIRCRPPRLPRPRPRPQWHPRP | 0.0206 |
| RRIRTRPPRLPRPRPRPNYEPRP | -0.682 |
| RRIRMRPPRLPRPRPRPEVHPRP | -0.0544 |
| RRIRTRPPRLPRPRPRPIQQPRP | -0.229 |
| RRIRQRPPRLPRPRPRPDMHPRP | 0.161 |
| RRIRCRPPRLPRPRPRPQQLPRP | -0.054 |
| RRIRERPPRLPRPRPRPPNYPRP | -0.201 |
| RRIRARPPRLPRPRPRPAHRPRP | 0.326 |
| RRIRIRPPRLPRPRPRPDFQPRP | -0.125 |
| RRIRTRPPRLPRPRPRPGECPRP | -0.258 |
| RRIRCRPPRLPRPRPRPLISPRP | -0.3 |
| RRIRCRPPRLPRPRPRPKWLPRP | -0.0375 |
| RRIRDRPPRLPRPRPRPHEDPRP | 0.0325 |
| RRIRCRPPRLPRPRPRPAFRPRP | 0.25 |
| RRIRERPPRLPRPRPRPYMHPRP | -0.232 |
| RRIRLRPPRLPRPRPRPWNYPRP | -0.43 |
| RRIRRRPPRLPRPRPRPGYKPRP | -0.0679 |

| Sequence | shrunken log2 fold change |
| --- | --- |
| RRIRIRPPRLPRPRPRPEERPRP | 0.0136 |
| RRIRFRPPRLPRPRPRPMVHPRP | -0.468 |
| RRIRSRPPRLPRPRPRPGDYPRP | -0.0123 |
| RRIRARPPRLPRPRPRPYQNPRP | -0.559 |
| RRIRFRPPRLPRPRPRPTTYPRP | -0.608 |
| RRIRYRPPRLPRPRPRPARWPRP | 0.135 |
| RRIRGRPPRLPRPRPRPEAPPRP | 1.73 |
| RRIRNRPPRLPRPRPRPRKRPRP | -0.0369 |
| RRIRVRPPRLPRPRPRPCPFPRP | -0.314 |
| RRIRQRPPRLPRPRPRPRAIPRP | 0.109 |
| RRIRKRPPRLPRPRPRPHFDPRP | 0.275 |
| RRIRKRPPRLPRPRPRPVEWPRP | 0.12 |
| RRIRNRPPRLPRPRPRPCCFPRP | -0.278 |
| RRIRYRPPRLPRPRPRPNSRPRP | -0.156 |
| RRIRVRPPRLPRPRPRPGQPPRP | 0.0218 |
| RRIRLRPPRLPRPRPRPIAQPRP | -0.0527 |
| RRIRLRPPRLPRPRPRPKYHPRP | -0.472 |
| RRIRRRPPRLPRPRPRPIVWPRP | 0.0811 |
| RRIRNRPPRLPRPRPRPSPWPRP | 0.0438 |
| RRIRFRPPRLPRPRPRPIDCPRP | -0.046 |
| RRIRQRPPRLPRPRPRPRTMPRP | -0.232 |
| RRIRVRPPRLPRPRPRPQFDPRP | -0.00843 |
| RRIRERPPRLPRPRPRPHVIPRP | -0.133 |
| RRIRWRPPRLPRPRPRPPLKPRP | 0.415 |
| RRIRSRPPRLPRPRPRPCWRPRP | 0.106 |

| Sequence | shrunken log2 fold change |
| --- | --- |
| RRIRMRPPRLPRPRPRPYWHPRP | -0.305 |
| RRIRLRPPRLPRPRPRPSDPPRP | -0.0539 |
| RRIRDRPPRLPRPRPRPTETPRP | -0.000924 |
| RRIRQRPPRLPRPRPRPHPRPRP | 0.575 |
| RRIRMRPPRLPRPRPRPVFVPRP | 0.0672 |
| RRIRSRPPRLPRPRPRPIKTPRP | 0.000501 |
| RRIRNRPPRLPRPRPRPNFCPRP | -0.0258 |
| RRIRCRPPRLPRPRPRPSASPRP | 0.165 |
| RRIRYRPPRLPRPRPRPQHNPRP | -1.13 |
| RRIRCRPPRLPRPRPRPQTLPRP | -0.148 |
| RRIRTRPPRLPRPRPRPECDPRP | -0.134 |
| RRIRQRPPRLPRPRPRPGQQPRP | -0.0212 |
| RRIRCRPPRLPRPRPRPPMHPRP | 0.183 |
| RRIRRRPPRLPRPRPRPTHMPRP | 0.577 |
| RRIRMRPPRLPRPRPRPGKHPRP | 4.3 |
| RRIRCRPPRLPRPRPRPACRPRP | 0.128 |
| RRIRPRPPRLPRPRPRPVKCPRP | -0.0701 |
| RRIRWRPPRLPRPRPRPRMFPRP | 0.182 |
| RRIRFRPPRLPRPRPRPDDHPRP | -0.139 |
| RRIRCRPPRLPRPRPRPWFQPRP | -0.2 |
| RRIRWRPPRLPRPRPRPIPTPRP | -0.0487 |
| RRIRYRPPRLPRPRPRPRDQPRP | -0.0852 |
| RRIRNRPPRLPRPRPRPQGRPRP | -0.0865 |
| RRIRQRPPRLPRPRPRPTAIPRP | -0.248 |
| RRIRSRPPRLPRPRPRPHDKPRP | -0.214 |

| Sequence | shrunken log2 fold change |
| --- | --- |
| RRIRSRPPRLPRPRPRPWIVPRP | -0.127 |
| RRIRERPPRLPRPRPRPWVRPRP | -0.122 |
| RRIRPRPPRLPRPRPRPITAPRP | -0.187 |
| RRIRWRPPRLPRPRPRPWYVPRP | -0.396 |
| RRIRSRPPRLPRPRPRPMCPPRP | -0.0743 |
| RRIRMRPPRLPRPRPRPRKLPRP | 0.857 |
| RRIRIRPPRLPRPRPRPIPDPRP | -1.08 |
| RRIRERPPRLPRPRPRPMWMPRP | -0.0314 |
| RRIRMRPPRLPRPRPRPHMDPRP | -0.604 |
| RRIRPRPPRLPRPRPRPSLNPRP | -0.539 |
| RRIRMRPPRLPRPRPRPIYTPRP | -0.257 |
| RRIRYRPPRLPRPRPRPNYYPRP | -1.16 |
| RRIRCRPPRLPRPRPRPTVQPRP | 0.0608 |
| RRIRVRPPRLPRPRPRPDFSPRP | -0.373 |
| RRIRNRPPRLPRPRPRPCEHPRP | -0.162 |
| RRIRGRPPRLPRPRPRPMLEPRP | 0.778 |
| RRIRCRPPRLPRPRPRPDMAPRP | -0.145 |
| RRIRDRPPRLPRPRPRPNYLPRP | -0.126 |
| RRIRLRPPRLPRPRPRPHWDPRP | 0.176 |
| RRIRKRPPRLPRPRPRPDGKPRP | 0.0268 |
| RRIRTRPPRLPRPRPRPVWYPRP | -0.456 |
| RRIRKRPPRLPRPRPRPFVRPRP | 0.00981 |
| RRIRIRPPRLPRPRPRPWHMPRP | -0.0375 |
| RRIRQRPPRLPRPRPRPIAMPRP | -0.0149 |
| RRIRYRPPRLPRPRPRPHNAPRP | -1.21 |

| Sequence | shrunken log2 fold change |
| --- | --- |
| RRIRRRPPRLPRPRPRPHPEPRP | 0.0463 |
| RRIRLRPPRLPRPRPRPAVNPRP | -0.0174 |
| RRIRDRPPRLPRPRPRPYGLPRP | -0.0553 |
| RRIRWRPPRLPRPRPRPWLAPRP | -0.168 |
| RRIRKRPPRLPRPRPRPGYFPRP | -0.0741 |
| RRIRCRPPRLPRPRPRPGRKPRP | 0.0644 |
| RRIRVRPPRLPRPRPRPLLGPRP | -0.131 |
| RRIRVRPPRLPRPRPRPEFTPRP | -0.0269 |
| RRIRHRPPRLPRPRPRPEKDPRP | -0.0422 |
| RRIRRRPPRLPRPRPRPGLVPRP | 0.279 |
| RRIRNRPPRLPRPRPRPNGKPRP | -0.16 |
| RRIRTRPPRLPRPRPRPCMVPRP | -0.576 |
| RRIRARPPRLPRPRPRPDQPPRP | 0.0452 |
| RRIRQRPPRLPRPRPRPFWVPRP | 0.176 |
| RRIRERPPRLPRPRPRPQHYPRP | -0.398 |
| RRIRIRPPRLPRPRPRPKQDPRP | -0.354 |
| RRIRMRPPRLPRPRPRPCYEPRP | 0.0712 |
| RRIRDRPPRLPRPRPRPQWCPRP | 0.0917 |
| RRIRCRPPRLPRPRPRPATTPRP | 0.151 |
| RRIRERPPRLPRPRPRPGVYPRP | -0.049 |
| RRIRRRPPRLPRPRPRPNVSPRP | 0.137 |
| RRIRMRPPRLPRPRPRPGLVPRP | 0.294 |
| RRIRYRPPRLPRPRPRPHMLPRP | -1.09 |
| RRIRPRPPRLPRPRPRPRKYPRP | -0.352 |
| RRIRKRPPRLPRPRPRPRAEPRP | 0.632 |

| Sequence | shrunken log2 fold change |
| --- | --- |
| RRIRKRPPRLPRPRPRPWPDPRP | 0.238 |
| RRIRERPPRLPRPRPRPQWHPRP | -0.479 |
| RRIRERPPRLPRPRPRPERAPRP | -0.024 |
| RRIRWRPPRLPRPRPRPDKDPRP | -0.365 |
| RRIRNRPPRLPRPRPRPEVCPRP | -0.049 |
| RRIRWRPPRLPRPRPRPQETPRP | -0.00116 |
| RRIRGRPPRLPRPRPRPDWPPRP | 0.566 |
| RRIRPRPPRLPRPRPRPIYYPRP | -0.323 |
| RRIRFRPPRLPRPRPRPHCYPRP | 0.149 |
| RRIRNRPPRLPRPRPRPKFTPRP | -0.0624 |
| RRIRCRPPRLPRPRPRPKENPRP | 0.192 |
| RRIRHRPPRLPRPRPRPWWVPRP | -0.136 |
| RRIRERPPRLPRPRPRPGRRPRP | 0.0607 |
| RRIRHRPPRLPRPRPRPSKTPRP | -0.24 |
| RRIRMRPPRLPRPRPRPRLQPRP | 0.417 |
| RRIRSRPPRLPRPRPRPNFYPRP | -0.252 |
| RRIRERPPRLPRPRPRPAGQPRP | -0.195 |
| RRIRMRPPRLPRPRPRPHKKPRP | 0.0772 |
| RRIRDRPPRLPRPRPRPKWCPRP | 0.135 |
| RRIRDRPPRLPRPRPRPQATPRP | 0.403 |
| RRIRFRPPRLPRPRPRPPHAPRP | 0.491 |
| RRIRTRPPRLPRPRPRPQSLPRP | -0.0105 |
| RRIRWRPPRLPRPRPRPDYFPRP | -0.0991 |
| RRIRDRPPRLPRPRPRPHGKPRP | 0.0283 |
| RRIRHRPPRLPRPRPRPNLHPRP | -0.759 |
